Data on 46 molecules can be found in publication PMC5454392, “Selective BET bromodomain inhibition as an antifungal therapeutic strategy” (Nature Communications, 2017).

Sequences and labels used below:
T1: CaBdf1 BD2 (GST-tagged, wild-type) (Candida albicans (strain SC5314 / ATCC …, UniProt Q5A4W8))
T1 chain: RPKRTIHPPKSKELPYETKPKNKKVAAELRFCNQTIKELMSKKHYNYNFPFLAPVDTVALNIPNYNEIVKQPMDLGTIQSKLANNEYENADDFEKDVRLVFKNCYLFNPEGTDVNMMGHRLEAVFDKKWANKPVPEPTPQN

T2: CaBdf1 BD1 (GST-tagged, wild-type) (Candida albicans (strain SC5314 / ATCC …, UniProt Q5A4W8))
T2 chain: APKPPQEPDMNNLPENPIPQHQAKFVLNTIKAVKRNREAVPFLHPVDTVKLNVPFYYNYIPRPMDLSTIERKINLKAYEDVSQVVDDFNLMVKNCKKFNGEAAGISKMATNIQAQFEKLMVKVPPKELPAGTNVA

Numbered stars: 1 amine (or outer) side, 2 acyl side, 3 side chain; on linkers, the order of the positions; unused ones are H or OH. Square brackets hold non-standard residues; d marks the D form. Ends that are not written are not given here. Arg(Me2a) = CN(C)C(=N)NCCC[C@H](N)C(=O)O; Kac = CC(=O)NCCCC[C@H](N[*:1])C(=O)[*:2]; Arg(Me2s) = CN=C(NC)NCCC[C@H](N)C(=O)O; pT = C[C@@H](OP(=O)(O)O)[C@H](N)C(=O)O; Lys(Me2) = CN(C)CCCC[C@H](N)C(=O)O; pS = N[C@@H](COP(=O)(O)O)C(=O)O; Lys(Me) = CNCCCC[C@H](N)C(=O)O; Me2a = not defined here; me2a = not defined here

One experiment addresses T1, CaBdf1 BD2 (GST-tagged, wild-type). Briefly: histone peptide array (Active Motif MODified), 1 uM GST-tagged bromodomain, anti-GST detection, normalized mean intensity.
Molecule ARTKQTARKSTGGKAPRKQ (A Rme2s T Kme2 Q T A Rme2s Kme1 S T G G K A P R K Q) came in with a binding score of 0.00407. Regarding ARTKQTARKSTGGKAPRKQ (A R T K Q T A Rme2a Kme2 pS T G G K A P R K Q), the binding score turned out to be 0.00259. PDPAK(Ac)SAPAPKKG[pS]KKAVT showed a binding score of 0.00074. RKSAPATGGVKKPHRYRPG (R K S A P A T G G V Kac K P H R Y R P G) [H3 26-45] came in with a binding score of 0.0122.

Molecule ARTKQTARKSTGGKAPRKQ (not fully specified) displayed a binding score of 0.00259. For the molecule ARTKQTARKSTGGKAPRKQ (A Rme2s T Kme2 Q T A Rme2a Kme2 S T G G K A P R K Q), the binding score worked out at 0.00666. Turning to ARTK(me2)QTAR(me2a)K(me2)STGGKAPRKQ (reading uncertain), the binding score turned out to be 0.00259. In turn, ARTKQTARKSTGGKAPRKQ (A R T K Q T A R Kac S T G G K A P R K Q) had a binding score of 0.0037. Molecule ARTKQTARKSTGGKAPRKQ (A Rme2a T Kme1 Q T A Rme2a K S T G G K A P R K Q) registered a binding score of 0.00259.

For ARTKQTARKSTGGKAPRKQ (A Rme2s T Kme3 Q T A Rme2s Kme2 S T G G K A P R K Q), the binding score amounted to 0.00407. In turn, SGRGKGGKGLGKGGAKRHR (pS G R G K G G K G L G K G G A K R H R) had a binding score of 0.00444. ARTK(Me3)QTAR(Me2a)K(Ac)STGGKAPRKQ (reading uncertain) had a binding score of 0.00888. Still for that read-out and setting: the value for ARTKQTARKSTGGKAPRKQ (A R T K Q T A R Kme3 pS T G G K A P R K Q) was 0.00333. Regarding PRKQLATKAA[Arg(Me2a)]K[pS]APATGG, the binding score was 0.00407. In the case of ARTKQTARKSTGGKAPRKQ (A Rme2s T Kac Q T A Rme2a Kme3 S T G G K A P R K Q), the binding score was 0.00407. The molecule ARTKQTARKSTGGKAPRKQ (A R T Kme3 Q T A Rme2s Kme2 S T G G K A P R K Q) had a binding score of 0.00407. In the case of PRKQLATKAAR(Me2s)K(Me2)SAPATGG, the binding score amounted to 0.00222. For the molecule ARTKQTARKSTGGKAPRKQ (A Rme2a T Kme1 Q T A R Kme2 S T G G K A P R K Q), the binding score turned out to be 0.0037. Still for that read-out and setting: then ARTKQTARKSTGGKAPRKQ (A Rme2a T Kac Q T A R Kme2 S T G G K A P R K Q), with 0.00407. In turn, SGRGKGGKGLGKGGAKRHR (S G Rme2s G K G G K G L G K G G A K R H R) returned a binding score of 0.00666. ARTKQTARKSTGGKAPRKQ (A R T K Q T A Rme2s Kme1 S pT G G K A P R K Q) registered a binding score of 0.00407. Regarding PDPAK(Ac)SAPAPKKG[pS]K(Ac)KAVT, the binding score is 0.174.

The molecule A[Arg(Me2s)]T[Lys(Me2)]QTARKSTGGKAPRKQ returned a binding score of 0. With A[Arg(Me2a)]T[Lys(Me)]QTA[Arg(Me2s)][Lys(Me)]STGGKAPRKQ, the binding score amounted to 0.0037. Still for that read-out and setting: then ARTKQTARKSTGGKAPRKQ (A R T K Q T A R K S pT G G Kac A P R K Q), with 0.00999; and ARTK(Me2)QTARKSTGGKAPRKQ, with 0.00148. In turn, SGRGKGGKGLGKGGAKRHR (S G Rme2s G K G G Kac G L G K G G A K R H R) gave a binding score of 0.00777. On to A[Arg(Me2a)]T[Lys(Me2)]QTAR[Lys(Me2)]STGGKAPRKQ, for which the binding score is 0.00222. For A[Arg(Me2s)][pT]K(Me)QTARKSTGGKAPRKQ, the binding score was found to be 0.0037. Same read-out and setting: the value for ARTKQTARKSTGGKAPRKQ (A R T K Q T A Rme2a K S T G G K A P R K Q) was 0.00222; that for PRKQLATKAARK(Me3)SAPATGG was 0.00851.

Molecule SGRGKGGKGLGKGGAKRHR (S G R G K G G Kac G L G K G G A Kac R H R) came in with a binding score of 0.00999. As to SGRGKGGKGLGKGGAKRHR (S G R G Kac G G Kac G L G Kac G G A K R H R), the binding score worked out at 0.179. In turn, SGRGKGGKGLGKGGAKRHR (pS G R G Kac G G K G L G K G G A K R H R) returned a binding score of 0.00555. On to ARTKQTARKSTGGKAPRKQ (A Rme2s pT Kme3 Q T A R K S T G G K A P R K Q), for which the binding score is 0.00185.

Take PRKQLATKAARK[pS]APATGG: the binding score is 0.00555.

On to A[Arg(Me2s)][pT]KQTARKSTGGKAPRKQ, for which the binding score is 0.00074. Still for that read-out and setting: the value for AR(me2a)TK(Ac)QTAR(me2a)K(me2)STGGKAPRKQ (reading uncertain) was 0.00703. For AR(Me2a)TK(Ac)QTAR(Me2a)K(Ac)STGGKAPRKQ (reading uncertain), the binding score came to 0.0107. Molecule A[Arg(Me2a)]T[Lys(Me)]QTAR[Kac]STGGKAPRKQ returned a binding score of 0.00592.

A further experiment concerns the target T2, CaBdf1 BD1 (GST-tagged, wild-type). Described as above.
Regarding ARTKQTARKSTGGKAPRKQ (A Rme2s T Kme2 Q T A Rme2s Kme1 S T G G K A P R K Q), the binding score stood at 0.00544. Take ARTKQTARKSTGGKAPRKQ (A Rme2s T Kac Q T A Rme2s K S T G G K A P R K Q): the binding score stood at 0.00363. ARTKQTARKSTGGKAPRKQ (A R T K Q T A Rme2a Kme2 pS T G G K A P R K Q) registered a binding score of 0.00471. As for PDPAK(Ac)SAPAPKKG[pS]KKAVT, the binding score is 0.00689. The same measure, in the same setting: then ARTKQTARKSTGGKAPRKQ (A R T Kme2 Q T A Rme2s Kme2 S T G G K A P R K Q), with 0.00218; and RKSAPATGGVKKPHRYRPG (R K S A P A T G G V Kac K P H R Y R P G) [H3 26-45], with 0.0344. Same read-out and setting: then ARTKQTARKSTGGKAPRKQ (not fully specified), with 0; and ARTKQTARKSTGGKAPRKQ (A Rme2s T Kme2 Q T A Rme2a Kme2 S T G G K A P R K Q), with 0.0029; and ARTK(me2)QTAR(me2a)K(me2)STGGKAPRKQ (reading uncertain), with 0.000725.

ARTKQTARKSTGGKAPRKQ (A R T K Q T A R Kac S T G G K A P R K Q) yielded a binding score of 0.0087.

Take ARTKQTARKSTGGKAPRKQ (A Rme2a T Kme1 Q T A Rme2a K S T G G K A P R K Q): the binding score was 0.00435. Molecule ARTKQTARKSTGGKAPRKQ (A Rme2s T Kme3 Q T A Rme2s Kme2 S T G G K A P R K Q) came in with a binding score of 0.0029. With SGRGKGGKGLGKGGAKRHR (pS G R G K G G K G L G K G G A K R H R), the binding score was 0.00471. For the molecule ARTK(Me3)QTAR(Me2a)K(Ac)STGGKAPRKQ (reading uncertain), the binding score was 0.0359. In turn, ARTKQTARKSTGGKAPRKQ (A R T K Q T A R Kme3 pS T G G K A P R K Q) showed a binding score of 0.00363. Regarding PRKQLATKAA[Arg(Me2a)]K[pS]APATGG, the binding score is 0.00435. With ARTKQTARKSTGGKAPRKQ (A Rme2s T Kac Q T A Rme2a Kme3 S T G G K A P R K Q), the binding score was found to be 0.00471. For ARTKQTARKSTGGKAPRKQ (A R T Kme3 Q T A Rme2s Kme2 S T G G K A P R K Q), the binding score was 0.00254. In turn, PRKQLATKAAR(Me2s)K(Me2)SAPATGG registered a binding score of 0.00254. Molecule ARTKQTARKSTGGKAPRKQ (A Rme2a T Kme1 Q T A R Kme2 S T G G K A P R K Q) showed a binding score of 0.00326.

In turn, ARTKQTARKSTGGKAPRKQ (A Rme2a T Kac Q T A R Kme2 S T G G K A P R K Q) gave a binding score of 0.0112. Regarding ARTKQTARKSTGGKAPRKQ (A R T K Q T A R Kme1 pS T G G K A P R K Q), the binding score came out at 0.00181.

SGRGKGGKGLGKGGAKRHR (S G Rme2s G K G G K G L G K G G A K R H R) came in with a binding score of 0.00399.

Consider ARTKQTARKSTGGKAPRKQ (A R T K Q T A Rme2s Kme1 S pT G G K A P R K Q), for which the binding score turned out to be 0.0029. PDPAK(Ac)SAPAPKKG[pS]K(Ac)KAVT returned a binding score of 0.0656.

A[Arg(Me2s)]T[Lys(Me2)]QTARKSTGGKAPRKQ gave a binding score of 0.0029. As to A[Arg(Me2a)]T[Lys(Me)]QTA[Arg(Me2s)][Lys(Me)]STGGKAPRKQ, the binding score was 0.00471. Consider ARTKQTARKSTGGKAPRKQ (A R T K Q T A Rme2a Kme2 S pT G G K A P R K Q), for which the binding score is 0.00435. With ARTK(Me2)QTARKSTGGKAPRKQ, the binding score is 0.00181. SGRGKGGKGLGKGGAKRHR (S G Rme2s G K G G Kac G L G K G G A K R H R) yielded a binding score of 0.0152. With ARTKQTARKSTGGKAPRKQ (A Rme2a T Kac Q T A Rme2s Kme2 S T G G K A P R K Q), the binding score worked out at 0.00616. A[Arg(Me2a)]T[Lys(Me2)]QTAR[Lys(Me2)]STGGKAPRKQ registered a binding score of 0.00399.

Molecule A[Arg(Me2s)][pT]K(Me)QTARKSTGGKAPRKQ gave a binding score of 0.00181. As to ARTKQTARKSTGGKAPRKQ (A R T K Q T A Rme2a K S T G G K A P R K Q), the binding score turned out to be 0.00326. For PRKQLATKAARK(Me3)SAPATGG, the binding score was found to be 0.00616. SGRGKGGKGLGKGGAKRHR (S G R G K G G Kac G L G K G G A Kac R H R) gave a binding score of 0.0228. On the same count and under the same terms, the value for ARTKQTARKSTGGKAPRKQ (A Rme2s T Kme3 Q T A Rme2s Kme1 S T G G K A P R K Q) was 0.00363; that for SGRGKGGKGLGKGGAKRHR (S G R G Kac G G Kac G L G Kac G G A K R H R) was 0.0729.

Molecule SGRGKGGKGLGKGGAKRHR (pS G R G Kac G G K G L G K G G A K R H R) registered a binding score of 0.0167.

For the molecule ARTKQTARKSTGGKAPRKQ (A Rme2s pT Kme3 Q T A R K S T G G K A P R K Q), the binding score came to 0.00363. Molecule PRKQLATKAARK[pS]APATGG gave a binding score of 0.00218. A[Arg(Me2s)][pT]KQTARKSTGGKAPRKQ returned a binding score of 0.00326.

In turn, AR(Me2a)TK(Ac)QTAR(Me2a)K(Ac)STGGKAPRKQ (reading uncertain) came in with a binding score of 0.0413.

Turning to A[Arg(Me2a)]T[Lys(Me)]QTAR[Kac]STGGKAPRKQ, the binding score is 0.0359.
